From article PMC10726570 come the findings set out here.

pKd: −log10 of the molar value.

The target of assay [1] is human neonatal Fc receptor (human-FcRn) (human) (UniProt P55899).
The target is the same in assay [2]. Kind of assay: SPR; format and conditions not told in the text (who was immobilised, pH, buffer); shown in Fig. S1B-C. On the technique in general: Surface plasmon resonance follows binding to a sensor surface in real time, without labels.
In assay [3] the target is monkey neonatal Fc receptor (monkey-FcRn) (monkey) (UniProt Q8SPV9). The description is as above.

In turn, “PAT101, recombinant human albumin (rHA)-conjugated Aspergillus flavus urate oxidase (from UniProt Q00511 1-302; P02768 25-609) (complex)” displayed a plasma half-life T1/2 (uricase activity) after a single i.v. dose in TG mice expressing human FcRn in assay [1] of 95 h. Moreover, the pKd (commonly −log10 of the Kd, conventionally taken in molar units) in assay [2] was 5.53; in assay [3] it was 5.16.
